The record followed here is article PMC10786891, “Massively parallel profiling of RNA-targeting CRISPR-Cas13d”.

To fix the notation:
T1: EsCas13d, nuclease-dead (Eubacterium siraeum, UniProt B0MS50, R295A;H300A;R849A;H854A)
T1 sequence: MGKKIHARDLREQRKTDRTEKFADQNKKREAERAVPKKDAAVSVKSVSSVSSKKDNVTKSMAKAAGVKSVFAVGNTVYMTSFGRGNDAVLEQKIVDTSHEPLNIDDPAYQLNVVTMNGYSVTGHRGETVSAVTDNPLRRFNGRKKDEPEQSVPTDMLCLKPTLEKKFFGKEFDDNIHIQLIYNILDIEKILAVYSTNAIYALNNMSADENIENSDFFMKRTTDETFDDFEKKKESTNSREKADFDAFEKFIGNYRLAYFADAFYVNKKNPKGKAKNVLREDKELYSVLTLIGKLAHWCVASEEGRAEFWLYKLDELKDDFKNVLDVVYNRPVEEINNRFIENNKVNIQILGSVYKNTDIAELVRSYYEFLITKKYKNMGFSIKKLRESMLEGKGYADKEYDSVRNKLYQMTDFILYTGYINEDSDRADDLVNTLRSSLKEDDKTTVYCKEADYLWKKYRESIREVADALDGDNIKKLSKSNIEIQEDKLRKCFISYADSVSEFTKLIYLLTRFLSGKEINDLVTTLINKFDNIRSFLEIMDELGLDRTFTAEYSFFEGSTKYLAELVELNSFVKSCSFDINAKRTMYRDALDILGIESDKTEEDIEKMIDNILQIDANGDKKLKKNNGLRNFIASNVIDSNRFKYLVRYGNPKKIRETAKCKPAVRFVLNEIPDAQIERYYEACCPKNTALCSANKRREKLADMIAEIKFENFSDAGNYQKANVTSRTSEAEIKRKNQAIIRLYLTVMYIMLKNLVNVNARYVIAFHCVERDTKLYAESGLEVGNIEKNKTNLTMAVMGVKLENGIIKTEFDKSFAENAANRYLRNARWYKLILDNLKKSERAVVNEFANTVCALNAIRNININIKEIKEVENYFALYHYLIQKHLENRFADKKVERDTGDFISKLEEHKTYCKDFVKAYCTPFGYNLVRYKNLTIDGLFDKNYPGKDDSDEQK

B1: target 1 insC 3' of 22,insU 3' of 6 (mixed)
RNA 1: CACCCGUGCAAAAAUGCAGGGGUCUAAAACUGAGCGGAUAACCUCUCUAUGG
RNA 2: GGGAAUGGAUCCACAUCUACGAAUUCGUACCCAUAGAGAGGUUAUCCUGCUCACCGAGAUCGGAAGAGCACACGU
B2: target 1 insU 3' of 22,insU 3' of 4 (mixed)
RNA 1: CACCCGUGCAAAAAUGCAGGGGUCUAAAACUGAGCGGAUAACCUCUCUAUGG
RNA 2: GGGAAUGGAUCCACAUCUACGAAUUCGUACUCAUAGAGAGGUUAUCCGCUUCACCGAGAUCGGAAGAGCACACGU
B3: target 3 insA 3' of 6,insA 3' of 3 (mixed)
RNA 1: CACCCGUGCAAAAUUGCAGGGGUCUAAAACGACCUGAAUAUUUCAGAUCAAA
RNA 2: GGGAAUGGAUCCACAUCUACGAAUUCGUUUUUGAUCUGAAAUAUUCAAGGAUCUGCAGAUCGGAAGAGCACACGU
B4: target 3 insC 3' of 18,insC 3' of 11 (mixed)
RNA 1: CACCCGUGCAAAAUUGCAGGGGUCUAAAACGACCUGAAUAUUUCAGAUCAAA
RNA 2: GGGAAUGGAUCCACAUCUACGAAUUCGUUUUUGACUCUGAAACUAUUCAGGUCUGCAGAUCGGAAGAGCACACGU
B5: target 3 del2,del8 (mixed)
RNA 1: CACCCGUGCAAAAUUGCAGGGGUCUAAAACGACCUGAAUAUUUCAGAUCAAA
RNA 2: GGGAAUGGAUCCACAUCUACGAAUUCGUUUUUGAUCUGAAAUAUCAGGCUGCAGAUCGGAAGAGCACACGU
B6: target 3 insG 3' of 9,insC 3' of 3 (mixed)
RNA 1: CACCCGUGCAAAAUUGCAGGGGUCUAAAACGACCUGAAUAUUUCAGAUCAAA
RNA 2: GGGAAUGGAUCCACAUCUACGAAUUCGUUUUUGAUCUGAAAUAGUUCAGGCUCUGCAGAUCGGAAGAGCACACGU
B7: target 3 insU 3' of 4,insU 3' of 4 (mixed)
RNA 1: CACCCGUGCAAAAUUGCAGGGGUCUAAAACGACCUGAAUAUUUCAGAUCAAA
RNA 2: GGGAAUGGAUCCACAUCUACGAAUUCGUUUUUGAUCUGAAAUAUUCAGUUGUCUGCAGAUCGGAAGAGCACACGU
B8: target 3 insU 3' of 6,insG 3' of 6 (mixed)
RNA 1: CACCCGUGCAAAAUUGCAGGGGUCUAAAACGACCUGAAUAUUUCAGAUCAAA
RNA 2: GGGAAUGGAUCCACAUCUACGAAUUCGUUUUUGAUCUGAAAUAUUCUGAGGUCUGCAGAUCGGAAGAGCACACGU
B9: target 3 insC 3' of 22,insG 3' of 2 (mixed)
RNA 1: CACCCGUGCAAAAUUGCAGGGGUCUAAAACGACCUGAAUAUUUCAGAUCAAA
RNA 2: GGGAAUGGAUCCACAUCUACGAAUUCGUUUCUUGAUCUGAAAUAUUCAGGUGCUGCAGAUCGGAAGAGCACACGU
B10: target 3 insA 3' of 20,insU 3' of 19 (mixed)
RNA 1: CACCCGUGCAAAAUUGCAGGGGUCUAAAACGACCUGAAUAUUUCAGAUCAAA
RNA 2: GGGAAUGGAUCCACAUCUACGAAUUCGUUUUUAGUAUCUGAAAUAUUCAGGUCUGCAGAUCGGAAGAGCACACGU
B11: target 3 C1U,A11G (mixed)
RNA 1: CACCCGUGCAAAAUUGCAGGGGUCUAAAACGACCUGAAUAUUUCAGAUCAAA
RNA 2: GGGAAUGGAUCCACAUCUACGAAUUCGUUUUUGAUCUGAAGUAUUCAGGUUUGCAGAUCGGAAGAGCACACGU
B12: target 3 U2G,A13U (mixed)
RNA 1: CACCCGUGCAAAAUUGCAGGGGUCUAAAACGACCUGAAUAUUUCAGAUCAAA
RNA 2: GGGAAUGGAUCCACAUCUACGAAUUCGUUUUUGAUCUGUAAUAUUCAGGGCUGCAGAUCGGAAGAGCACACGU
B13: target 3 insG 3' of 22,insU 3' of 3 (mixed)
RNA 1: CACCCGUGCAAAAUUGCAGGGGUCUAAAACGACCUGAAUAUUUCAGAUCAAA
RNA 2: GGGAAUGGAUCCACAUCUACGAAUUCGUUUGUUGAUCUGAAAUAUUCAGGUUCUGCAGAUCGGAAGAGCACACGU
B14: target 3 insA 3' of 10,insA 3' of 2 (mixed)
RNA 1: CACCCGUGCAAAAUUGCAGGGGUCUAAAACGACCUGAAUAUUUCAGAUCAAA
RNA 2: GGGAAUGGAUCCACAUCUACGAAUUCGUUUUUGAUCUGAAAUAAUUCAGGUACUGCAGAUCGGAAGAGCACACGU
B15: target 3 C1U,A5U (mixed)
RNA 1: CACCCGUGCAAAAUUGCAGGGGUCUAAAACGACCUGAAUAUUUCAGAUCAAA
RNA 2: GGGAAUGGAUCCACAUCUACGAAUUCGUUUUUGAUCUGAAAUAUUCUGGUUUGCAGAUCGGAAGAGCACACGU
B16: target 3 del2 (mixed)
RNA 1: CACCCGUGCAAAAUUGCAGGGGUCUAAAACGACCUGAAUAUUUCAGAUCAAA
RNA 2: GGGAAUGGAUCCACAUCUACGAAUUCGUUUUUGAUCUGAAAUAUUCAGGCUGCAGAUCGGAAGAGCACACGU
B17: target 3 del8 (mixed)
RNA 1: CACCCGUGCAAAAUUGCAGGGGUCUAAAACGACCUGAAUAUUUCAGAUCAAA
RNA 2: GGGAAUGGAUCCACAUCUACGAAUUCGUUUUUGAUCUGAAAUAUCAGGUCUGCAGAUCGGAAGAGCACACGU
B18: target 3 insA 3' of 22,insA 3' of 2 (mixed)
RNA 1: CACCCGUGCAAAAUUGCAGGGGUCUAAAACGACCUGAAUAUUUCAGAUCAAA
RNA 2: GGGAAUGGAUCCACAUCUACGAAUUCGUUUAUUGAUCUGAAAUAUUCAGGUACUGCAGAUCGGAAGAGCACACGU
B19: target 3 U10C (mixed)
RNA 1: CACCCGUGCAAAAUUGCAGGGGUCUAAAACGACCUGAAUAUUUCAGAUCAAA
RNA 2: GGGAAUGGAUCCACAUCUACGAAUUCGUUUUUGAUCUGAAACAUUCAGGUCUGCAGAUCGGAAGAGCACACGU
B20: target 3 insA 3' of 14,insU 3' of 5 (mixed)
RNA 1: CACCCGUGCAAAAUUGCAGGGGUCUAAAACGACCUGAAUAUUUCAGAUCAAA
RNA 2: GGGAAUGGAUCCACAUCUACGAAUUCGUUUUUGAUCUGAAAAUAUUCAUGGUCUGCAGAUCGGAAGAGCACACGU
B21: target 3 A13G,U22A (mixed)
RNA 1: CACCCGUGCAAAAUUGCAGGGGUCUAAAACGACCUGAAUAUUUCAGAUCAAA
RNA 2: GGGAAUGGAUCCACAUCUACGAAUUCGUUAUUGAUCUGGAAUAUUCAGGUCUGCAGAUCGGAAGAGCACACGU
B22: target 3 insC 3' of 5 (mixed)
RNA 1: CACCCGUGCAAAAUUGCAGGGGUCUAAAACGACCUGAAUAUUUCAGAUCAAA
RNA 2: GGGAAUGGAUCCACAUCUACGAAUUCGUUUUUGAUCUGAAAUAUUCACGGUCUGCAGAUCGGAAGAGCACACGU
B23: target 3 U2G,A12C (mixed)
RNA 1: CACCCGUGCAAAAUUGCAGGGGUCUAAAACGACCUGAAUAUUUCAGAUCAAA
RNA 2: GGGAAUGGAUCCACAUCUACGAAUUCGUUUUUGAUCUGACAUAUUCAGGGCUGCAGAUCGGAAGAGCACACGU
B24: target 3 insC 3' of 22,insG 3' of 5 (mixed)
RNA 1: CACCCGUGCAAAAUUGCAGGGGUCUAAAACGACCUGAAUAUUUCAGAUCAAA
RNA 2: GGGAAUGGAUCCACAUCUACGAAUUCGUUUCUUGAUCUGAAAUAUUCAGGGUCUGCAGAUCGGAAGAGCACACGU
B25: target 3 G3C,G4A (mixed)
RNA 1: CACCCGUGCAAAAUUGCAGGGGUCUAAAACGACCUGAAUAUUUCAGAUCAAA
RNA 2: GGGAAUGGAUCCACAUCUACGAAUUCGUUUUUGAUCUGAAAUAUUCAACUCUGCAGAUCGGAAGAGCACACGU
B26: target 3 complement block 5-7 (mixed)
RNA 1: CACCCGUGCAAAAUUGCAGGGGUCUAAAACGACCUGAAUAUUUCAGAUCAAA
RNA 2: GGGAAUGGAUCCACAUCUACGAAUUCGUUUUUGAUCUGAAAUAUAGUGGUCUGCAGAUCGGAAGAGCACACGU
B27: target 3 U21G,U22A (mixed)
RNA 1: CACCCGUGCAAAAUUGCAGGGGUCUAAAACGACCUGAAUAUUUCAGAUCAAA
RNA 2: GGGAAUGGAUCCACAUCUACGAAUUCGUUAGUGAUCUGAAAUAUUCAGGUCUGCAGAUCGGAAGAGCACACGU

This data set has as its target T1, EsCas13d, nuclease-dead. The data set can be described thus: crRNA (strand 1, pre-loaded); Mg2+; 40 mM Tris-HCl pH 7.5, 150 mM NaCl, 6 mM MgCl2, 1 mM DTT, 0.1% Tween-20, 0.2 mg/ml BSA; 25 C; 10 min per concentration, then washed. Conditions: tags: His6-TwinStrep-SUMO cleaved; N-terminal SNAP kept (SNAP-Surface 488); label: 3' end held by stalled T7 RNA polymerase.
One may read the Kd as the concentration at which binding is half-saturated. With B1, the dissociation constant (Kd) is 20 ± 2 nM.
In the case of B2, the affinity, expressed as Kd, was 32 ± 5 nM.
The same measure for B3: 6.15 ± 0.6 nM; for B4: 37 ± 5 nM; for B5: 47 ± 8.5 nM.
Then B6, with 42 ± 7 nM; and B7, with 14.5 ± 1.2 nM; and B8, with 8.7 ± 0.95 nM.
In turn, B9 yielded a dissociation constant (Kd) of 59 ± 11 nM.
The molecule B10 registered a dissociation constant (Kd) of 62.5 ± 14.5 nM.
In turn, B11 yielded a Kd of 55.5 ± 13 nM.
B12 displayed a dissociation constant (Kd) of 46.5 ± 13.5 nM.
In turn, B13 gave a dissociation constant (Kd) of 68 ± 26 nM.
Consider B14, for which the affinity, expressed as Kd, was 56 ± 8.5 nM.
In turn, B15 returned a dissociation constant Kd of 12.9 ± 3.05 nM.
With B16, the affinity, expressed as Kd, was 9.1 ± 0.7 nM.
The same measure for B17: roughly 114 nM; for B18: 24.9 ± 2.35 nM.
For B19, the dissociation constant (Kd) was found to be 88 ± 22 nM.
B20 had a dissociation constant Kd of 69.5 ± 12.5 nM.
Molecule B21 displayed a Kd of 43 ± 15 nM.
In the case of B22, the Kd came out at 19.2 ± 1.75 nM.
B23 yielded a dissociation constant (Kd) of 23.5 ± 4 nM.
Regarding B24, the equilibrium dissociation constant (Kd) was found to be 93.5 ± 26 nM.
B25: the Kd is 6.6 ± 0.65 nM.
With B26, binding was characterised by a dissociation constant (Kd) of 39.1 ± 2.9 nM.
In turn, B27 yielded an equilibrium dissociation constant (Kd) of 57.5 ± 15.5 nM.
